Assay results taken from patent US20170204184A1 (CB THERAPEUTICS, published 2017).

How the values were obtained:
[1] = target: T1, biotinylated human PD-L1-mFc (human, biotinylated (sites not given)); experiment: competition ELISA: blocks PD-L1-mFc-biotin binding to coated PD-1-hFc
T1 construct: also called PDL-1-mFc-biotin
Experimental: The wells were aspirated and non-specific binding sites were blocked by adding 200 μL of blocking buffer (PBS with 1% (w/v) of bovine serum albumin (BSA, Roche, Cat No:738328)) and incubating for 1 hour at 37° C. After the plate was washed three times with wash buffer (PBS with 0.05% (v/v) Tween20 (Sigma, Cat No:P1379)), 100 μL/well of 1:3 serial dilutions of hybridoma (FIG. 4), chimeric (FIG. 5), or humanized (FIG. 6) anti-PD-L1 antibodies in blocking buffer (starting from 20 μg/mL) were added and incubated at 37° C. for 1 hour. […] After the plate was washed 3 times, secondary antibody (Avidin HRP eBioscience cat No.: E07418-1632, 1:500, 100 μl/well) was added and incubated at 37° C. for 0.5 hour. After the plate was washed, 100 μL/well of substrate solution TMB (eBioscience, Cat No: 00-4201-56) was added and the plate was incubated for 3min at room temperature. 100 μL/well of stop solution (2N H₂SO₄) was added to stop the reaction. The colorimetric signals were developed and read at 450 nm using an Auto Plate SpectraMax Plus (Supplier: Moleculer Devices; Model: MNR0643; Software: SoftMax Pro v5.4). Data were analyzed using GraphPad Prism 5 and IC50 was calculated (FIGS. 4-6; Tables 8-10).

[2] = target: T2, hPD-L1-mFc (human); experiment: ELISA, coated PD-L1-mFc
T2 construct: it may hold a signal peptide; also called human PD-L1-mFc; PD-L1-mFc (Crownbio)
Experimental: ELISA binding analyses were conducted based on human PD-L1-mFc (for chimeric and humanized antibody detection) and PD-L1-hFc protein (for hybridoma antibody detection). 96-well plates (Costar, Cat No: 9018) were coated with 100 μL of 2 μg/ml PD-L1-mFc (Crownbio) in coating buffer PBS (Hyclone, Cat No: SH30256.01B) overnight at 4° C. The wells were aspirated and non-specific binding sites were blocked by adding 200 μL of blocking buffer (PBS with 1% (w/v) of bovine serum albumin (BSA, Roche, Cat No:738328)) and incubating for 1 hour at 37° C. After the plates were washed three times with wash buffer (PBS with 0.05% (v/v) Tween20 (Sigma, Cat No:P1379)), 100 μL/well of 1:10 serial dilutions of hybridoma (FIG. 1), chimeric (FIG. 2), or humanized (FIG. 3) anti-PD-L1 antibodies in blocking buffer (starting from 20 μg/mL) were added and incubated at room temperature for 1 hour. The plates were washed and incubated with 100 μL/well of Goat anti-Mouse IgG (H+L) (Thermo, Cat No: 31432) in blocking buffer for 60 min. After the plates were washed, 100 μL/well of substrate solution TMB (eBioscience, Cat No: 00-4201-56) were added and the plates were incubated for 2 min at room temperature. 100 μL/well of stop solution (2N H₂SO₄) was added to stop the reaction. The colorimetric signals were developed and read at 450 nm using an Auto Plate SpectraMax Plus (Supplier: Moleculer Devices; Model: MNR0643; Software: SoftMax Pro v5.4). Data were analyzed using GraphPad Prism 5 and EC50 was calculated (FIGS. 1-3; Tables 5-7).

[3] = target: T3, PD-L1 on 293T cells (UniProt Q9NZQ7 19-290); experiment: flow cytometry competition: blocks biotin-labeled PD-1 binding to PD-L1-293T cells
T3 construct: whole, on cells; also called PD-L1-293T; 293T-PD-L1 cells
Experimental: Briefly, PD-L1-293T cells were suspended in FACS buffer (PBS with 3% fetal calf serum). Various concentrations of the hybridoma (FIG. 10), chimeric (FIG. 11), or humanized (FIG. 12) anti-PD-L1 antibodies were added to the cell suspension and incubated at 4° C. for 60 minutes in 96 well plates. […] The cells were washed 3 times with PBS and incubated with mouse anti-biotin PE (Biolegend, cat# 409004). The cell-associated fluorescence was then detected by flow cytometry analysis using FACS array.

[4] = target: T3, PD-L1 on 293T cells; experiment: flow cytometry on PD-L1-293T cells
Experimental: Cell binding analyses of anti-PD-L1 antibodies were performed based on binding to a 293T cell line stably expressing PD-L1 (PD-L1-293T). 2×10⁵ 293T-PD-L1 cells were added into each well of 96-well culture plates and incubated with the indicated antibody (20 μg/ml with the dilution of 1:5) at 4° C. for 1 h. After the cells were washed three times with FACS buffer, the secondary antibody (PE Goat anti-mouse: 1:200; PE mouse anti-human: 1:10) was added to the cells at 100 μl/well, and incubated at 4° C. for 40 min. Cells were washed three times with FACS buffer and analyzed by FACS Array.

[5] = target: T4, cynomolgus PD-L1 (cynomolgus, UniProt G7PSE7 19-238); experiment: SPR (Biacore 3000), antibody captured, PD-L1 as analyte, 1:1 fit
T4 construct: also called Cyno-PD-L1; cyno-PD-L1; not shown: Any tag or Fc carrier on the soluble cynomolgus PD-L1 analyte
Experimental: (§1) The binding kinetics between PD-L1 and PD-L1 antibodies were measured by Biacore analysis, which was performed at 25° C. on a Biacore3000 instrument and recorded with a data collection rate of 1 Hz. Polyclonal rabbit anti-mouse IgG (GE, BR-1008-38) was diluted with 10 mM pH 5.0 sodium acetate and immobilized onto reference and experiment flow cells of a CM5 biosensor chip to around 15000 RU using an amine coupling kit (GE, BR10050). […] PD-L1 analyte series were prepared by diluting the stocks with running buffer to 100 nM followed by 2× serial dilution in the same buffer down to 0.78 nM. Analytes were injected in series over the reference and experiment flow cells for 3 minutes at a flow rate of 30 μL/minute. Running buffer (PBS with 0.05% P20) was allowed to flow over for 10 minutes at a flow rate of 30 μL/minute. At the end of each cycle, the biosensor surface was regenerated with 3 minutes injection of 10 mM pH1.7 Glycine-HCl buffer at a flow rate of 10 μL/minute. For each analyte sample injection (i.e. each cycle), binding responses obtained from the experimental biosensor surface were double referenced by subtracting simultaneously recorded responses from the reference surface followed by additional subtraction of responses from a single referenced running buffer sample. The association and dissociation rate constants (ka and kd) were determined simultaneously by fitting double-referenced sensorgrams of the entire titration series to Langmuir model (1:1) using Biaevaluation 4.0 software. The dissociation constant, KD, was calculated from the determined rate constants by the relation KD=kd/ka.

[6] = target: T5, Human PD-L1 (human, UniProt Q9NZQ7 19-238, limits assumed); experiment: as above
T5 construct: also called PD-L1 analyte (Biacore); hPD-L1
Experimental: as §1

IC50 [1] | EC50 [2] | IC50 [3] | EC50 [4] | Kd [5] | Kd [6] | Binder
1.01 µg/mL | 0.0821 µg/mL | 0.0404 µg/mL | 0.0583 µg/mL |  |  | ch5G11-hIgG1 (antibody, Mouse-human chimeric IgG1 (D265A), human kappa; also called Chimeric 5G11-IgG1 (D265A); ch-5G11-IgG1) heavy: not shown light: SIVMTQTPKFLLVSAGDRVTITCKASQSVSNDVAWYQQKPGQSPKLLIYYAANRYTGVPDRFTGSGYGTDFTFTISIVQAEDLAVYFCQQDYTSPYTFGGGTKLEIKRTVAAPSVFIFPPSDEQLKSGTASVVCLLNNFYPREAKVQWKVDNALQSGNSQESVTEQDSKDSTYSLSSTLTLSKADYEKHKVYACEVTHQGLSSPVTKSFNRGEC
0.926 µg/mL | 0.09 µg/mL | 0.0332 µg/mL | 0.0897 µg/mL |  |  | ch5G11-hIgG4 (antibody, Mouse-human chimeric IgG4 (F234A/L235A), human kappa; also called Chimeric 5G11-IgG4 (F234A/L235A); ch-5G11-IgG4) heavy: not shown light: SIVMTQTPKFLLVSAGDRVTITCKASQSVSNDVAWYQQKPGQSPKLLIYYAANRYTGVPDRFTGSGYGTDFTFTISIVQAEDLAVYFCQQDYTSPYTFGGGTKLEIKRTVAAPSVFIFPPSDEQLKSGTASVVCLLNNFYPREAKVQWKVDNALQSGNSQESVTEQDSKDSTYSLSSTLTLSKADYEKHKVYACEVTHQGLSSPVTKSFNRGEC
1.2 µg/mL | 0.0856 µg/mL | 0.0185 µg/mL | 0.08 µg/mL |  |  | hu13C5-hIgG1 (antibody, Humanized IgG1 with D265A; also called Humanized 13C5-IgG1 (D265A); hu-13C5-IgG1) heavy: not shown light: DIVLTQSPASLAVSPGQRATITCRASQSVSTSSSSFMHWYQQKPGQPPKLLIKYASNLESGVPARFSGSGSGTDFTLTINPVEANDTANYYCQHSWEIPYTFGQGTKLEIKRTVAAPSVFIFPPSDEQLKSGTASVVCLLNNFYPREAKVQWKVDNALQSGNSQESVTEQDSKDSTYSLSSTLTLSKADYEKHKVYACEVTHQGLSSPVTKSFNRGEC
 |  |  |  | 2.43 nM | 1.74 nM | hu13C5 (antibody) VH: EVQLVESGGGLVKPGGSLRLSCAASGFIFRSYGMSWVRQAPGKGLEWVASISSGGSTYYPDSVKGRFTISRDNAKNSLYLQMNSLRAEDTAVYDCARGYDSGFAYWGQGTLVTVSS light: DIVLTQSPASLAVSPGQRATITCRASQSVSTSSSSFMHWYQQKPGQPPKLLIKYASNLESGVPARFSGSGSGTDFTLTINPVEANDTANYYCQHSWEIPYTFGQGTKLEIKRTVAAPSVFIFPPSDEQLKSGTASVVCLLNNFYPREAKVQWKVDNALQSGNSQESVTEQDSKDSTYSLSSTLTLSKADYEKHKVYACEVTHQGLSSPVTKSFNRGEC
1.19 µg/mL | 0.127 µg/mL | 0.0499 µg/mL | 0.0804 µg/mL |  |  | hu13C5-hIgG4 (antibody, Humanized IgG4 with F234A and L235A; also called Humanized 13C5-IgG4 (F234A/L235A); hu-13C5-IgG4) heavy: not shown light: DIVLTQSPASLAVSPGQRATITCRASQSVSTSSSSFMHWYQQKPGQPPKLLIKYASNLESGVPARFSGSGSGTDFTLTINPVEANDTANYYCQHSWEIPYTFGQGTKLEIKRTVAAPSVFIFPPSDEQLKSGTASVVCLLNNFYPREAKVQWKVDNALQSGNSQESVTEQDSKDSTYSLSSTLTLSKADYEKHKVYACEVTHQGLSSPVTKSFNRGEC
0.794 µg/mL | 0.0495 µg/mL | 0.0165 µg/mL | 0.0479 µg/mL |  |  | hu5G11-hIgG1 (antibody, Humanized IgG1 with D265A; also called Humanized 5G11-IgG1 (D265A); hu-5G11-IgG1) heavy: not shown light: DIQMTQSPSSLSASVGDRVTITCKASQSVSNDVAWYQQKPGKAPKLLIYYAANRYTGVPDRFSGSGYGTDFTFTISSLQPEDIATYFCQQDYTSPYTFGQGTKLEIKRTVAAPSVFIFPPSDEQLKSGTASVVCLLNNFYPREAKVQWKVDNALQSGNSQESVTEQDSKDSTYSLSSTLTLSKADYEKHKVYACEVTHQGLSSPVTKSFNRGEC
0.823 µg/mL | 0.0699 µg/mL | 0.0096 µg/mL | 0.0543 µg/mL |  |  | hu5G11-hIgG4 (antibody, Humanized IgG4 with F234A and L235A; also called Humanized 5G11-IgG4 (F234A/L235A); hu-5G11-IgG4) heavy: not shown light: DIQMTQSPSSLSASVGDRVTITCKASQSVSNDVAWYQQKPGKAPKLLIYYAANRYTGVPDRFSGSGYGTDFTFTISSLQPEDIATYFCQQDYTSPYTFGQGTKLEIKRTVAAPSVFIFPPSDEQLKSGTASVVCLLNNFYPREAKVQWKVDNALQSGNSQESVTEQDSKDSTYSLSSTLTLSKADYEKHKVYACEVTHQGLSSPVTKSFNRGEC
 |  |  |  | 0.275 nM | 0.225 nM | hu5G11 (antibody) VH: QITLKESGPTLVKPTQTLTLTCTVSGFSLSTYGVHWIRQPPGKALEWLGVIWRGVTTDYNAAFMSRLTITKDNSKNQVVLTMNNMDPVDTATYYCARLGFYAMDYWGQGTLVTVSS light: DIQMTQSPSSLSASVGDRVTITCKASQSVSNDVAWYQQKPGKAPKLLIYYAANRYTGVPDRFSGSGYGTDFTFTISSLQPEDIATYFCQQDYTSPYTFGQGTKLEIKRTVAAPSVFIFPPSDEQLKSGTASVVCLLNNFYPREAKVQWKVDNALQSGNSQESVTEQDSKDSTYSLSSTLTLSKADYEKHKVYACEVTHQGLSSPVTKSFNRGEC
